Measured values from paper PMC5738438, “Dynamic intramolecular regulation of the histone chaperone nucleoplasmin controls histone binding and release” (Nature Communications, 2017).

B1: Npm core+A2 truncation (1–145) (domain or fragment)
chain: ASTASNTSKVEKPVSLIWGCELNEQNKTFAFKIEDEEEKCEHQLALRTVCLGDKAKDEFHIVEIVTQEEGKEKPVPIASLKPSILPMATMVGIELTPPVTFRLKAGSGPVYISGQHVAMEEDYSWAEEEDEGEEEEEEEEDPESP
B2: A2 peptide (residues 119–145) (peptide)
chain: MEEDYSWAEEEDEGEEEEEEEEDPESP

Tests used:
[1] = target: the molecule itself; assay: SEC-SAXS; complex of core+A2 and H2A/H2B purified by SEC, 4.83 mg/mL on Superdex 200 PC3.2/300, 5 mM DTT; Porod volume
H2A/H2B dimer = H2A/H2B dimer (Xenopus, UniProt P06897 2-123; P02281 1-126); assay: other fluorescence titration; equilibrium tryptophan (W125) fluorescence, 340/360 ratio; tail or peptide 0.5 µM, histones titrated; 20 mM Tris pH 7.6, 150 mM NaCl, 1 mM EDTA, 1 mM DTT, 0.01% NP-40; single-site model; details: both partners purified

Binder	stoichiometry N [1]	Kd (H2A/H2B dimer)
B1	5	–
B2	–	< 50 nM
